Results published in the nanobody polyreactivity screen of Harvey et al. (2022).

Assay: yeast display, Sf9 membrane polyspecificity reagent, FACS + sequencing; frameworks hold sequencing errors
How it was run: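 In a synthetic yeast display library (Saccharomyces cerevisiae BJ5465), nanobody expression was induced with galactose for 36–48 hours. FACS gates were set low and high (top ~1%) using anti-HA fluorescence for expression and streptavidin fluorescence for binding of the Sf9 membrane reagent. Each polyreactivity label is drawn from the gate of origin.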

Sequence	polyreactivity (PSR sort gate)
QVQLVESGGGLVQAGGSLRLSCAASGSNFQYYGMGWYRQAPGKERELVASISRSGGSTYYADSVKGRFTISRDNAKNTVYLQMNSLKPEDTAVYYCNAKEAIRRTHLTTTYRDGYWGQGTQVTVSS	low polyreactivity
QVQLVESGGGLVQAGGSLRLSCAASGSNFSFYAMGWYRQAPGKERELVAAISYSGGSTYYADSVKGRFTISRDNAKNTVYLQINSLKPEDTAVYYCNSDIYRHHGWVPGGYRGQGTQVTVSS	low polyreactivity
QVQLVESGGGLVQAGGSLRLSCAASGSNFTANAMGLYRQAPGKEREMVADISTGGSTKYADSVKGRFTISRDNAKNTVYLEMNSLKPEDTAVYYCAARSRWARGSAIRGFWGQGTQVTVSS	high polyreactivity
QVQLVESGGGLVQAGGSLRLSCAASGSNFVVYAMGWYRQAPGKERELVAAISWGIGSTYYADSVKGRFTISRDNAKNTVYLHMNSLKPQDTAVYYCAADTDIVLYDYWGQGTQVTVSS	low polyreactivity
QVQLVESGGGLVQAGGSLRLSCAASGSNFYGYTMGWYRQAPGKERELVAAISWSGGSTYYADSVKGRFTISRDNAKNTVYLQMNSLKPEDTAVYYCAARWGYSRRGYRGYDYWGQGTQVTVSS	high polyreactivity
QVQLVESGGGLVQAGGSLRLSCAASGSNFYPYAMGWYRQAPGKEREFVAAITRSGGSTSYADSVKGRFTISRDNAKNTVYLQMNSLKPVDTAVDYCAAGYWYPDYDGFDYWGQGTQVTGSS	low polyreactivity
QVQLVESGGGLVQAGGSLRLSCAASGSNIKYYAMGWYRQAPGKERELVAAISWRGGRTYADSVKGRFTISRDNAKNTVYLQMNSLKPEDTAVYYCATAQTSITGRVYYWGQGTQVTVSS	high polyreactivity
QVQLVESGGGLVQAGGSLRLSCAASGSNITYYAMGWYRQAPGKERELVAAINLSGDITYYADSVKGRFTISRDNAKNTVYLQMNSLKPEDTAVYYCAAESASSRPYFNSIHRRDSWGQGTQVTVSS	low polyreactivity
QVQLVESGGGLVQAGGSLRLSCAASGSPFKRYAMGWYRQAPGKERELVAAISSRGSSTYYADSVKGRFTISRDNAKNTVYLQMNSLKPEDTAVYYCAADRYTFWTVHSDYWGQGTQVTVSS	high polyreactivity
QVQLVESGGGLVQAGGSLRLSCAASGSPFTRYTMGWYRHAPGKERELVASITRTGSTNYADSVKGRFTISRDNAKNTLYFQMNSLKPEDTAVYYCAAGRYYSYRFSFGYWGQGTQVTVSS	high polyreactivity
QVQLVESGGGLVQAGGSLRLSCAASGSPFVDNAMGWYRQAPGKEMELVAAIRDGSGGSTRYADSVKGRFTISRDNAKNTVYLQMHSLKPEVTAVYYCAADGYITVNYLRYDYWGQGTQVTVSS	low polyreactivity
QVQLVESGGGLVQAGGSLRLSCAASGSPYQQYGMGWYRQAPGKERELVAAITFSDGNTYYADSVTGRFTISRDNAKNTVYLQMNSLKPEDTAVYYCNAGYSYGVSYAEGGYWGQGTQVTVSS	low polyreactivity
QVQLVESGGGLVQAGGSLRLSCAASGSSFAGNAMGWYRQAPGKERELVAAIDSSTGSTYYADSVKGRFTISRDNAKNTVYLQMNSLKPEDTAVYYCNKTSFLVKLDYWGQGTQVTLSS	low polyreactivity
QVQLVESGGGLVQAGGSLRLSCAASGSSFGGYAMGWYRQAPGKERELVARITDRGGSTDYADSVKGRFTISRDNAKNTVYLQKNSLKPEDTAGSYCAKRGDRYEKRPRDYWGQGTQVTVSS	low polyreactivity
QVQLVESGGGLVQAGGSLRLSCAASGSSFGTYAMGWYRQAPGKERELVAAISSSVGSTYYADSVKGRFTISRDNATNTVYLQMNSLKPEDTAVYYCAVEQEDFWYPYLYDYWGQGTQVTVSS	high polyreactivity
QVQLVESGGGLVQAGGSLRLSCAASGSSFKRYAMGWYRQAPGKERELVAAINWRGGRTYYADSVKGRFTISRDNAKNTVYLQMNSLKPEDTAVYYCNVVSNSYYYQHYYWGQGTQVTVSS	high polyreactivity
QVQLVESGGGLVQAGGSLRLSCAASGSSFTPNALGWYRQAPGKERELVAAISSSSDRTYYADSVKGRFTISRDNAKNTVYLQMNSLKPEDTAVYYCNARTEYASSRYYYWGQGTQVTVSS	high polyreactivity
